For 94 variants, protein stability index results are on record in the supplement of paper PMC10567573.

First the molecules themselves.
B1: PTPRD (parent)
chain: FICQATGDPRPKIVWNKKGKKVSN
B2: KRT13 (parent)
chain: TPGIDLTRVLAEMREQYEAMAERN
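Further: lentivirally expressed fusions sorted by FACS into six bins by GFP to DsRed ratio, PSI derived from sequencing read proportions per bin multiplied by bin number.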

Variants of B1 are the subject of the first series. Kind of series: protein stability index of a GFP-peptide fusion (GPS, HEK-293T) (PSI 1-6); higher = more stable. As to conditions: c terminus: a fixed tail appended.
Take GICQATGDPRPKIVWNKKGKKVSN [F1G]: the protein stability index came to 4.53.
Still for that read-out and setting: next, FICQARGDPRPKIVWNKKGKKVSN [T6R]: 2.
As to FICQAAGDPRPKIVWNKKGKKVSN [T6A], the protein stability index came out at 1.92.
Same read-out and setting: the value for FICQAEGDPRPKIVWNKKGKKVSN [T6E] was 2.05.
Still for that read-out and setting: the value for FICQAGGDPRPKIVWNKKGKKVSN [T6G] was 2.18; that for FICQACGDPRPKIVWNKKGKKVSN [T6C] was 2.81.
Consider FICQASGDPRPKIVWNKKGKKVSN [T6S], for which the protein stability index stood at 2.94.
Take FICQAVGDPRPKIVWNKKGKKVSN [T6V]: the protein stability index was determined as 1.91.
Same read-out and setting: the value for FICQAIGDPRPKIVWNKKGKKVSN [T6I] was 1.61; that for FICQAQGDPRPKIVWNKKGKKVSN [T6Q] was 2.17.
Still for that read-out and setting: the value for FICQAPGDPRPKIVWNKKGKKVSN [T6P] was 1.96; that for FICQALGDPRPKIVWNKKGKKVSN [T6L] was 1.47; that for FICQAMGDPRPKIVWNKKGKKVSN [T6M] was 1.65.
In the case of FICQADGDPRPKIVWNKKGKKVSN [T6D], the protein stability index stood at 1.71.
The same measure, in the same setting: next, FICQAKGDPRPKIVWNKKGKKVSN [T6K]: 2.02; FICQAFGDPRPKIVWNKKGKKVSN [T6F]: 1.68.
With FICQAHGDPRPKIVWNKKGKKVSN [T6H], the protein stability index amounted to 1.68.
FICQANGDPRPKIVWNKKGKKVSN [T6N]: the protein stability index stood at 1.78.

In another series the parent is B2. The description is as above. To be noted: c terminus: a fixed tail appended.
Take TPGIDLTRVLAEMREQYEAMGERN [A21G]: the protein stability index was determined as 2.79.
Same read-out and setting: next, TPGIDLTRVLAEMREQYEAMQERN [A21Q]: 4.54; TPGIDLTRVLAEMREQYEAMMERN [A21M]: 4.09.
Still for that read-out and setting: the value for TPGIDLTRVLAEMREQYEAMVERN [A21V] was 3.55.
For the variant TPGIDLTRVLAEMREQYEAMYERN [A21Y], the protein stability index came out at 4.5.
For TPGIDLTRVLAEMREQYEAMRERN [A21R], the protein stability index worked out at 4.18.
Take TPGIDLTRVLAEMREQYEAMPERN [A21P]: the protein stability index is 4.93.
As to TPGIDLTRVLAEMREQYEAMSERN [A21S], the protein stability index stood at 4.65.
Still for that read-out and setting: the value for TPGIDLTRVLAEMREQYEAMIERN [A21I] was 4.27.
On to TPGIDLTRVLAEMREQYEAMDERN [A21D], for which the protein stability index was determined as 4.91.
In the case of TPGIDLTRVLAEMREQYEAMCERN [A21C], the protein stability index stood at 4.29.
Still for that read-out and setting: next, TPGIDLTRVLAEMREQYEAMHERN [A21H]: 4.07; TPGIDLTRVLAEMREQYEAMKERN [A21K]: 3.94.
For the variant TPGIDLTRVLAEMREQYEAMLERN [A21L], the protein stability index came out at 4.39.
The same measure, in the same setting: next, TPGIDLTRVLAEMREQYEAMFERN [A21F]: 3.98.
On the same count and under the same terms, the value for TPGIDLTRVLAEMREQYEAMAERP [N24P] was 4.07; that for TPGIDLTRVLAEMREQYEAMAERY [N24Y] was 3.8.
Same read-out and setting: the value for TPGIDLTRVLAEMREQYEAMAERK [N24K] was 3.27; that for TPGIDLTRVLAEMREQYEAMAERT [N24T] was 4.22; that for TPGIDLTRVLAEMREQYEAMAERS [N24S] was 4.51.
As to TPGIDLTRVLAEMREQYEAMAERD [N24D], the protein stability index was determined as 5.03.
Regarding TPGIDLTRVLAEMREQYEAMAERH [N24H], the protein stability index was 4.79.
Regarding TPGIDLTRVLAEMREQYEAMAERE [N24E], the protein stability index is 4.51.
Same read-out and setting: next, TPGIDLTRVLAEMREQYEAMAERI [N24I]: 4.63; TPGIDLTRVLAEMREQYEAMAERQ [N24Q]: 4.23; TPGIDLTRVLAEMREQYEAMAERM [N24M]: 4.67.
Still for that read-out and setting: the value for TPGIDLTRVLAEMREQYEAMAERG [N24G] was 4.87.
On the same count and under the same terms, next, TPGIDLTRVLAEMREQYEAMAERC [N24C]: 3.08; TPGIDLTRVLAEMREQYEAMAERA [N24A]: 3.56.
Regarding TPGIDLTRVLAEMREQYEAMAERW [N24W], the protein stability index is 4.55.
As to TPGIDLTRVLAEMREQYEAMAERL [N24L], the protein stability index worked out at 4.83.
With TPGIDLTRVLAEMREQYEAMAERF [N24F], the protein stability index turned out to be 4.
On the same count and under the same terms, next, TPGIDLTRVLAEMREQYEANAERN [M20N]: 3.18; TPGIDLTRVLAEMREQYEAVAERN [M20V]: 3.09; TPGIDLTRVLAEMREQYEAPAERN [M20P]: 4.81.
Same read-out and setting: the value for TPGIDLTRVLAEMREQYEAQAERN [M20Q] was 4.13; that for TPGIDLTRVLAEMREQYEAYAERN [M20Y] was 4.62.
Still for that read-out and setting: the value for TPGIDLTRVLAEMREQYEARAERN [M20R] was 4.68.
With TPGIDLTRVLAEMREQYEATAERN [M20T], the protein stability index turned out to be 4.25.
On the same count and under the same terms, next, TPGIDLTRVLAEMREQYEAWAERN [M20W]: 5.32.
The same measure, in the same setting: the value for TPGIDLTRVLAEMREQYEAMAEHN [R23H] was 4.21.
Still for that read-out and setting: next, TPGIDLTRVLAEMREQYEAMAEMN [R23M]: 3.27; TPGIDLTRVLAEMREQYEAMAENN [R23N]: 4.59.
With TPGIDLTRVLAEMREQYEAMAEDN [R23D], the protein stability index is 4.84.
The same measure, in the same setting: next, TPGIDLTRVLAEMREQYEAMAEQN [R23Q]: 4.39.
The same measure, in the same setting: the value for TPGIDLTRVLAEMREQYEAMAELN [R23L] was 3.34; that for TPGIDLTRVLAEMREQYEAMAEIN [R23I] was 2.94; that for TPGIDLTRVLAEMREQYEAMAEGN [R23G] was 3.98.
Regarding TPGIDLTRVLAEMREQYEAMAEAN [R23A], the protein stability index stood at 3.9.
On the same count and under the same terms, next, TPGIDLTRVLAEMREQYEAMAESN [R23S]: 4.56.
Same read-out and setting: next, TPGIDLTRVLAEMREQYEAMAECN [R23C]: 4.43; TPGIDLTRVLAEMREQYEAMAEYN [R23Y]: 3.61.
As for TPGIDLTRVLAEMREQYEAMAEVN [R23V], the protein stability index was 3.01.
Still for that read-out and setting: the value for TPGIDLTRVLAEMREQYEAMAETN [R23T] was 4.08.
Still for that read-out and setting: next, TPGIDLTRVLAEMREQYEAMAEEN [R23E]: 4.9; TPGIDLTRVLAEMREQYEAMAEPN [R23P]: 4.62.
With TPGIDLTRVLAEMREQYEAMAEFN [R23F], the protein stability index is 3.78.
On the same count and under the same terms, the value for TPGIDLTRVLAEMREQYEAMAEKN [R23K] was 4.03; that for TPGIDLTRVLAEMREQYEAMAEWN [R23W] was 2.83.
As for TPGIDLTRVLAEMREQYEAMAVRN [E22V], the protein stability index was 2.56.
As for TPGIDLTRVLAEMREQYEAMAYRN [E22Y], the protein stability index is 3.
The same measure, in the same setting: next, TPGIDLTRVLAEMREQYEAMAWRN [E22W]: 2.86; TPGIDLTRVLAEMREQYEAMAARN [E22A]: 4.08; TPGIDLTRVLAEMREQYEAMAGRN [E22G]: 4.02.
Same read-out and setting: next, TPGIDLTRVLAEMREQYEAMAFRN [E22F]: 2.98; TPGIDLTRVLAEMREQYEAMASRN [E22S]: 3.52; TPGIDLTRVLAEMREQYEAMADRN [E22D]: 4.66.
On to TPGIDLTRVLAEMREQYEAMATRN [E22T], for which the protein stability index came out at 3.87.
As for TPGIDLTRVLAEMREQYEAMANRN [E22N], the protein stability index amounted to 4.04.
On to TPGIDLTRVLAEMREQYEAMAHRN [E22H], for which the protein stability index came to 3.73.
Same read-out and setting: next, TPGIDLTRVLAEMREQYEAMAPRN [E22P]: 3.98; TPGIDLTRVLAEMREQYEAMAIRN [E22I]: 2.79; TPGIDLTRVLAEMREQYEAMACRN [E22C]: 3.7.
Still for that read-out and setting: next, TPGIDLTRVLAEMREQYEAMAMRN [E22M]: 4.03.
Still for that read-out and setting: next, TPGIDLTRVLAEMREQYEAMALRN [E22L]: 4.4; TPGIDLTRVLAEMREQYEAMAKRN [E22K]: 4.39.
